Test results published in US20040137516A1 (PHAGETECH, published 2004).
Where no end group is shown, it is not given here.

B4: Gal4 DNA binding domain-Lamin C control fusion (pGBKT7LaminC) (other)
chain: MKLLSSIEQACDICRLKKLKCSKEKPKCAKCLKNNWECRYSPKTKRSPLTRAHLTEVESRLERLEQLFLLIFPREDLDMILKMDSLQDIKALLTGLFVQDNVNKDAVTDRLASVETDMPLTLRQHRISATSSSEESSNKGQRQLTVSSEEVVSREVSGIKAAYEAELGDARKTLDSVAKERARLQLELSKVREEFKELKARNTKKEGDLIAAQARLKDLEALLNSKEAALSTALSEKRTLEGELHDLRGQVAKLEAALGEAKKQLQDEMLRRVDAENRLQTMKEELDFQKNIYSEELRETKRRHETRLVEID
notes: also called pGBKLaminC

Assays:
[1] = target: T1, S. aureus STAAU_R2 (DNA-directed DNA polymerase III beta subunit, DnaN), native protein in S. aureus extract (Staphylococcus aureus, UniProt P0A022 1-377); test: affinity chromatography of S. aureus extract on GST/ORF25-Affigel 10; 1% SDS eluate, SDS-PAGE silver stain, MALDI-ToF identification
T1 construct: also called PT48; PT 48
T1 sequence: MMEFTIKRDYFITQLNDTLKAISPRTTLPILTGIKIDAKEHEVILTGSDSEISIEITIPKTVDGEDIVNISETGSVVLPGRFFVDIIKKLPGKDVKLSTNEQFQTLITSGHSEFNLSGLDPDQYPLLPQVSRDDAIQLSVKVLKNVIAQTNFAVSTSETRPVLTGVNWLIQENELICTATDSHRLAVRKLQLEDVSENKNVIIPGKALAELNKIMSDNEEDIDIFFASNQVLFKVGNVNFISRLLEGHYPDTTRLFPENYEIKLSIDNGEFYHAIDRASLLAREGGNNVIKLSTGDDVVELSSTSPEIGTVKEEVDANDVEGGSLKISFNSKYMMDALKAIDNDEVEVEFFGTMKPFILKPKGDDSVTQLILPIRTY

[2] = target: T1, S. aureus STAAU_R2 (DNA-directed DNA …); test: affinity chromatography of S. aureus extract on GST ORF240-Affigel 10; SDS-PAGE silver stain
[3] = target: T2, Glutathione-S-transferase (GST)-tagged STAAU_R2 (Staphylococcus aureus, UniProt P0A022 1-377); test: SPR (Biacore 2000); GST-tagged STAAU_R2 captured by anti-GST antibody on CM5 chip, ORF 25 as analyte
T2 construct: Purified recombinant polypeptide captured by an anti-GST antibody on a CM5 chip; not shown: glutathione-S-transferase (GST) tag
T2 sequence: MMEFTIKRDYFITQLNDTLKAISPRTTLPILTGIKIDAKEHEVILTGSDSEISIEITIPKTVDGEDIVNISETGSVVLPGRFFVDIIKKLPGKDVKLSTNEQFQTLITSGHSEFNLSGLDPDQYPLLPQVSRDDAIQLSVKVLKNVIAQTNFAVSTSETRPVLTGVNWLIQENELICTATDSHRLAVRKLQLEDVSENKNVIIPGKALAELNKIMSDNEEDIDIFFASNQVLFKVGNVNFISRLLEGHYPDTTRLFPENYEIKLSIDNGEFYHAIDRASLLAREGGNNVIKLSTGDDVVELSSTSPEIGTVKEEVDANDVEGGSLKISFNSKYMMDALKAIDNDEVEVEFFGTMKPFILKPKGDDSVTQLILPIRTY

[4] = target: T3, Gal4 activation domain-STAAU_R2 fusion (pGADSTAAU_R2) (yeast; Staphylococcus aureus, UniProt P0A022 1-377); test: yeast two-hybrid, growth on THAL minus medium
T3 construct: Expressed in yeast AH109 for two-hybrid analysis; not shown: limits and vector-encoded tags not st
T3 sequence: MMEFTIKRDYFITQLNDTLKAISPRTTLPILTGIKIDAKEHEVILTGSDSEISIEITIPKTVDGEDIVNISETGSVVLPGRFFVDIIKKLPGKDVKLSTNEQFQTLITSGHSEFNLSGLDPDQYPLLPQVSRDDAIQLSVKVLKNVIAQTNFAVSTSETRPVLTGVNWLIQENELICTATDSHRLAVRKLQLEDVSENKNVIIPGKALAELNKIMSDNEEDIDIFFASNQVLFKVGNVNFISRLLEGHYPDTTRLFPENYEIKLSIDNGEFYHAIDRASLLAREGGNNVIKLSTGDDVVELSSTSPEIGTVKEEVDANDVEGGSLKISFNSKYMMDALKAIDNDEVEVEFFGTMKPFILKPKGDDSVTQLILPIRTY

[5] = target: B4; test: yeast two-hybrid, growth on THAL minus medium

B1: GST/44AHJD ORF 25 fusion protein (other)
chain: MERKYKTVLLYCDEIKGHFPHQISMFEDLYDAKVVYSYYEYNLFTKKYAYIIEYIKEI
modifications: also: fusion protein with GST moiety, not in chain
notes: also called GST/ORF 25; GST/ORF25; not shown: glutathione-S-transferase (GST) moiety encoded by expression vector pGEX 4T-1 (Pharmacia)
[1]
  binding result: binds

B2: GST/G1 ORF 240 fusion protein (other)
chain: MVIPSIKAQNKFKNELEYYKQGHISESKMLELAFDYIQELEQNNEYVTNLLEEERYGE
modifications: also: fusion protein with GST moiety, not in chain
notes: also called GST ORF240; not shown: glutathione-S-transferase (GST) moiety encoded by expression vector pGEX 4T-1
[2]
  binding result: binds

B3: purified bacteriophage 44AHJD ORF 25 protein (other)
chain: MERKYKTVLLYCDEIKGHFPHQISMFEDLYDAKVVYSYYEYNLFTKKYAYIIEYIKEI
notes: Purified recombinant polypeptide injected as analyte in SPR; also called 44ADJH ORF 25
[3]
  binding result: binds

## B4
[4]
  binding result: no binding

B5: Gal4 activation domain-Twort ORF 168 fusion (pGADT7 construct) (other)
chain: MLFFKEKFYNELSYYRGGHKDLESMFELALEYIEKLEEEDEQQVTDYENAMEEELRDAVDVIESQLEIIKDIVR
notes: Second orientation of the two-hybrid test; also called Twort ORF 168 polypeptide; not shown: limits and vector-encoded tags not st
[5]
  binding result: no binding
